What was measured:
[1] = molecular target: cytokeratin protein; assay: cytokeratin immunocytochemistry (CAM5.2-FITC) on fixed TSU-PRI cells; percent of cells stained
[2] = molecular target: cytokeratin protein; assay: cytokeratin immunocytochemistry (CAM5.2-FITC) on fixed DUMS cells; percent of cells stained
[3] = molecular target: cytokeratin protein; assay: cytokeratin immunocytochemistry (CAM5.2-FITC) on fixed LNCaP cells; percent of cells stained
[4] = molecular target: cytokeratin protein; assay: cytokeratin immunocytochemistry (CAM5.2-FITC) on fixed PC-3 cells; percent of cells stained

Measured: Percentage of positive staining

FITC conjugated Anti-Cytokeratin (CAM5.2) monoclonal antibody (Becton-Dickinson, Cat. 347653)
100%: all assays above
